Experiments:
Caco-2 Host Cells = assay: Host cell toxicity assay by LDH release; type: cell-based, human
Protocol: Host cell toxicity assay was performed by measuring the release of lactate dehydrogenase (LDH) in the medium using a CYTOTOX 96 Non-Radioactive Cytotoxicity Assay kit (Promega, Madison, Wis.). Toxicity was therefore classified as non toxic 0-5% LDH release and mild toxicity 5-10% LDH release (ref).

[1] = Tobias et al. 1995; read-out: dissociation constant KD for LPS binding; cited from earlier work

B1: Lactoferrin (protein, UniProt P02788 20-710, looked up)
Lactotransferrin: GRRRSVQWCAVSQPEATKCFQWQRNMRKVRGPPVSCIKRDSPIQCIQAIAENRADAVTLDGGFIYEAGLAPYKLRPVAAEVYGTERQPRTHYYAVAVVKKGGSFQLNELQGLKSCHTGLRRTAGWNVPIGTLRPFLNWTGPPEPIEAAVARFFSASCVPGADKGQFPNLCRLCAGTGENKCAFSSQEPYFSYSGAFKCLRDGAGDVAFIRESTVFEDLSDEAERDEYELLCPDNTRKPVDKFKDCHLARVPSHAVVARSVNGKEDAIWNLLRQAQEKFGKDKSPKFQLFGSPSGQKDLLFKDSAIGFSRVPPRIDSGLYLGSGYFTAIQNLRKSEEEVAARRARVVWCAVGEQELRKCNQWSGLSEGSVTCSSASTTEDCIALVLKGEADAMSLDGGYVYTAGKCGLVPVLAENYKSQQSSDPDPNCVDRPVEGYLAVAVVRRSDTSLTWNSVKGKKSCHTAVDRTAGWNIPMGLLFNQTGSCKFDEYFSQSCAPGSDPRSNLCALCIGDEQGENKCVPNSNERYYGYTGAFRCLAENAGDVAFVKDVTVLQNTDGNNNEAWAKDLKLADFALLCLDGKRKPVTEARSCHLAMAPNHAVVSRMDKVERLKQVLLHQQAKFGRNGSDCPDKFCLFQSETKNLLFNDNTECLARLHGKTTYEKYLGPQYVAGITNLKKCSTSPLLEACEFLRK
notes: Sigma
% LDH release (Caco-2 Host Cells; 10 μg/ml): 5.9 ± 1.2 %
% LDH release (Caco-2 Host Cells; 100 μg/ml): 5.8 ± 3.1%

B2: LPS-binding protein (protein, UniProt P18428 26-481, looked up)
Lipopolysaccharide-binding …: ANPGLVARITDKGLQYAAQEGLLALQSELLRITLPDFTGDLRIPHVGRGRYEFHSLNIHSCELLHSALRPVPGQGLSLSISDSSIRVQGRWKVRKSFFKLQGSFDVSVKGISISVNLLLGSESSGRPTVTASSCSSDIADVEVDMSGDLGWLLNLFHNQIESKFQKVLESRICEMIQKSVSSDLQPYLQTLPVTTEIDSFADIDYSLVEAPRATAQMLEVMFKGEIFHRNHRSPVTLLAAVMSLPEEHNKMVYFAISDYVFNTASLVYHEEGYLNFSITDDMIPPDSNIRLTTKSFRPFVPRLARLYPNMNLELQGSVPSAPLLNFSPGNLSVDPYMEIDAFVLLPSSSKEPVFRLSVATNVSATLTFNTSKITGFLKPGKVKVELKESKVGLFNAELLEALLNYYILNTFYPKFNDKLAEGFPLPLLKRVQLYDLGLQIHKDFLFLGANVQYMRV
Kd [1]: 3.5 nM

From patent US20080274095A1, “Biocides” (priority 2004, published 2008)
